Source: article PMC5716044 (The Journal of Experimental Medicine, 2017)

Biological target: full-length EphA4 containing C-terminal FLAG and hexahistidine tags (EphA4-FLAGhis6) (human, UniProt P54764 20-986)
Assay: pull-down

full-length EphA4 containing C-terminal FLAG and hexahistidine tags (EphA4-FLAGhis6), sequence (P54764 20-986): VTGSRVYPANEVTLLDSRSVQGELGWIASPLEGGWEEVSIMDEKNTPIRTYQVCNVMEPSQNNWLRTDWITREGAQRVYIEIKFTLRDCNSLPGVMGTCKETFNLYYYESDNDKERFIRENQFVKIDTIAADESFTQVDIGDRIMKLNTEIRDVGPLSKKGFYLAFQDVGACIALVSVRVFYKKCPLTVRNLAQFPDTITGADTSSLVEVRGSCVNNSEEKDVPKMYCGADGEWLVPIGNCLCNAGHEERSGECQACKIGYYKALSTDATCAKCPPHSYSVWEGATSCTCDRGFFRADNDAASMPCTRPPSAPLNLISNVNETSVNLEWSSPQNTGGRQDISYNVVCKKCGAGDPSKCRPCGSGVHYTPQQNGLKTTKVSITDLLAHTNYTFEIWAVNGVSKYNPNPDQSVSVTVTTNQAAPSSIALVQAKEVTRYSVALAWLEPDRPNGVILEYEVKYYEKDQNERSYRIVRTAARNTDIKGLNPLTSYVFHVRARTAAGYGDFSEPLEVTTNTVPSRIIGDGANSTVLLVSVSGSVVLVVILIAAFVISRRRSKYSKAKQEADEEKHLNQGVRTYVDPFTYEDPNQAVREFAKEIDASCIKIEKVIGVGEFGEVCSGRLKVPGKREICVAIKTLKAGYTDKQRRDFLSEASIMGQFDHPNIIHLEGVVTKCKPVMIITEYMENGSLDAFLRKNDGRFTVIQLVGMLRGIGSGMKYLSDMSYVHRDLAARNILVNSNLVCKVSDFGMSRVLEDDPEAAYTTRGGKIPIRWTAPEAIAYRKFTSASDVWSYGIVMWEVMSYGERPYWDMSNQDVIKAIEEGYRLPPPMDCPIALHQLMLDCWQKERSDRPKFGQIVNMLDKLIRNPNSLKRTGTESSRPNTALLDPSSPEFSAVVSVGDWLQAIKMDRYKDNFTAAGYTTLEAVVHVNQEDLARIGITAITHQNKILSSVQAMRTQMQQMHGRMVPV

| binding result | Binder |
| --- | --- |
| binds | SORLA YWTD repeat/EGF-like region (aa 758-1,076) fused to Fc, WT (Fc fusion, UniProt Q92673 758-1076, looked up) NEFILYAVRKSIYRYDLASGATEQLPLTGLRAAVALDFDYEHNCLYWSDLALDVIQRLCLNGSTGQEVIINSGLETVEALAFEPLSQLLYWVDAGFKKIEVANPDGDFRLTIVNSSVLDRPRALVLVPQEGVMFWTDWGDLKPGIYRSNMDGSAAYHLVSEDVKWPNGISVDDQWIYWTDAYLECIERITFSGQQRSVILDNLPHPYAIAVFKNEIYWDDWSQLSIFRASKYSGSQMEILANQLTGLMDMKIFYKGKNTGSNACVPRPCSLLCLPKANNSRSCRCPEDVSSSVLPSGDLMCDCPQGYQLKNNTCVKQEN |
| binds | SORLA YWTD repeat/EGF-like region (aa 758-1,076) fused to Fc, T947M variant (Fc fusion, UniProt Q92673 758-1076, looked up) NEFILYAVRKSIYRYDLASGATEQLPLTGLRAAVALDFDYEHNCLYWSDLALDVIQRLCLNGSTGQEVIINSGLETVEALAFEPLSQLLYWVDAGFKKIEVANPDGDFRLTIVNSSVLDRPRALVLVPQEGVMFWTDWGDLKPGIYRSNMDGSAAYHLVSEDVKWPNGISVDDQWIYWTDAYLECIERIMFSGQQRSVILDNLPHPYAIAVFKNEIYWDDWSQLSIFRASKYSGSQMEILANQLTGLMDMKIFYKGKNTGSNACVPRPCSLLCLPKANNSRSCRCPEDVSSSVLPSGDLMCDCPQGYQLKNNTCVKQEN |
